The record followed here is patent US20040170990A1, “Intracellular nucleic acid inhibitors of small guanine nucleotide exchange factors” (published 2004).

For data set [1], the target named is chimera ARF-1 protein fused at the carboxy terminus to the constant CH1 and CH2 domains of human IgG immunoglobulin (human) (UniProt P84077). The data set can be described thus: cell-based or functional assay.
The target in data set [2] is T1, cytohesin-1 (full-length) (UniProt Q15438).
T1 sequence: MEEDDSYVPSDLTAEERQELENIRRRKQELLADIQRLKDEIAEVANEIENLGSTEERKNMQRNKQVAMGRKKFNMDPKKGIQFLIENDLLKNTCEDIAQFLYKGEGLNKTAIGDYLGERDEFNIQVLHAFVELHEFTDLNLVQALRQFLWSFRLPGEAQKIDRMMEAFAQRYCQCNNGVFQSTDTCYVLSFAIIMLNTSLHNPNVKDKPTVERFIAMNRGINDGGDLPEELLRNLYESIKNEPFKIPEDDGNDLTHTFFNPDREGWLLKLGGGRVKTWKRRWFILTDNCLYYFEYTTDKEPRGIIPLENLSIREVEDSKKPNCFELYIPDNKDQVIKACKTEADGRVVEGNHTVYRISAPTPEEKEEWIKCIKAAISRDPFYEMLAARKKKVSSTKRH
The experiment in a line: filter. Conditions: non-selected library; 3 mM MgCl2, 37 C.

In data set [3] the target is T2, cytohesin-1 (full-length) (UniProt Q15438 Q15438:1-398). The data set can be described thus: filter; 3 mM MgCl2, 37 C. Conditions: tags: 6xHis (cytohesin-1-His6), E. coli, Ni-NTA. How it is done:
(§1) Natl. Acad. Sci. USA 90 (1993), 11227-11231). […] Of the analysed sequences the clone M69 bound cytohesin-1-His6 with a dissociation constant of 16 nM (see Table 2). As controls the same binding experiments were carried out with E. coli lysates which were treated similarly to the cytohesin-1 expressed in E. coli.
(§2) In the next step the binding site of the aptamer M69 on cytohesin-1 was delimited in more detail. For this purpose filter binding studies were carried out using subdomain constructs of cytohesin-1. The PH domain and the Sec7 domain of cytohesin-1 were overexpressed as 6×His-Tag proteins (PH-His6 and C1-Sec7-His6) in E. coli and purified as described for cytohesin-1-His6. The synthetic polybasic C-peptide was obtained from the company TopLab (Munich). The Sec7 domain of the large Brefeldin A-sensitive ARF-GEF's Gea2 (Gea2-Sec7) was made available as 6×His-Tag protein by Cathy Jackson (Departement de Biologie Cellulaire et Moleculaire, CEA/Saclay, France). […] On the other hand, no interaction with the PH domain or the Sec7 domain of Gea2 could be detected (see Table 2). […] The aptamer M5 on the other hand recognises both the Sec7 domain of cytohesin-1 and also of Gea2 with approximately the same affinity. The PH domain of cytohesin-1 is recognised an order of magnitude less well. The aptamer M56 however binds best to the full-length protein cytohesin-1 and barely to the Sec7 domain of Gea2. Since both the Sec7 domain and also the PH domain of cytohesin-1 are bound with somewhat reduced affinities compared with the full-length protein, the aptamer appears to recognise a binding site on cytosin-1 which is composed of both domains.

Data set [4] has as its target T3, cytohesin-1 Sec7 domain (C1-Sec7) (UniProt Q15438 Q15438:73-202).
T3 chain: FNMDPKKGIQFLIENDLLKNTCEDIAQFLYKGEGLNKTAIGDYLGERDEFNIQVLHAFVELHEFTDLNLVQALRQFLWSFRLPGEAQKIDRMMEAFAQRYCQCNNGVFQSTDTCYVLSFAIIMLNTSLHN
The experiment in a line: filter; 3 mM MgCl2, 37 C. The note with it: tags: 6xHis, E. coli. The procedure:
as §1, §2

For data set [5], the target named is T4, cytohesin-1 PH domain (C1-PH) (UniProt Q15438 Q15438:260-377).
T4 chain: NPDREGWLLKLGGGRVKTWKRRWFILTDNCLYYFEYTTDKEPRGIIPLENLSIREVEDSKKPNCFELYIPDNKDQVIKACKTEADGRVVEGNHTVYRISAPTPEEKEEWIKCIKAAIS
The data set can be described thus: filter; 3 mM MgCl2, 37 C. The note with it: tags: 6xHis, E. coli; label: 5'-32P. The procedure: as §1, §2

Data set [6] concerns the target T5, Gea2 Sec7 domain (Gea2-Sec7, G2-Sec7) (UniProt P39993 P39993:570-714).
T5 chain: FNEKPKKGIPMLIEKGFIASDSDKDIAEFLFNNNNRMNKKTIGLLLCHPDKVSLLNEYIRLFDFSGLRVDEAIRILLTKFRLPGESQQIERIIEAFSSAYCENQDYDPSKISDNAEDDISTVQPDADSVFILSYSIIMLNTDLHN
The data set can be described thus: filter; 3 mM MgCl2, 37 C. Conditions: tags: 6xHis, provided by Cathy Jackson; label: 5'-32P. The procedure: as §1, §2

Data set [7] has as its target T2, cytohesin-1 (full-length). The experiment in a line: filter; 3 mM MgCl2, 37 C. Conditions: tags: 6xHis (cytohesin-1-His6), E. coli, Ni-NTA. How it is done: Filter binding experiments were carried out in order to test whether the selected aptamer sequences can also recognise native cytohesin-1 in solution. The interaction analyses are described in detail in the literature. (Jellinek et al., Proc. Natl. Acad. Sci. USA 90 (1993), 11227-11231; Jellinek et al., Biochemistry 33 (1994), 10450-10456).
Increasing concentrations of cytohesin-1-His6 (0.1 nM to 500 nM) were incubated with the aptamers according to the invention (1.0 nM) radioactively labelled with ³²P at the 5′ end for 1 h at 37° C. in selection buffer. The RNA/cytohesin-1-His6 complexes were then filtered over nitrocellulose acetate mixed membranes (HAWP 0.45 μm, Millipore). The filter was then rinsed with 5 ml of washing buffer (3 mM MgCl₂, 137 mM NaCl, 2.7 mM KCl, 4.3 mM Na₂HPO₄.7H₂O, 1.4 mM KH₂PO₄). Before the experiment the filters were pretreated for 10 minutes with 40 mM 6-aminocaproic acid and 20% ethanol. Radioactive RNA retained on the filters was quantified by analysis using a phosphor imager (Storm 860, Amersham). The dissociation constant (Kd) was determined as described by Jellinek et al. (Jellinek et al., Proc. Natl. Acad. Sci. USA 90 (1993), 11227-11231). […] Of the analysed sequences the clone M69 bound cytohesin-1-His6 with a dissociation constant of 16 nM (see Table 2). […]
The source holds these as a separate data set.

For data set [8], the target named is T5, Gea2 Sec7 domain (Gea2-Sec7, G2-Sec7). The data set can be described thus: filter; barely binds; 3 mM MgCl2, 37 C. The note with it: tags: 6xHis, provided by Cathy Jackson; label: 5'-32P. How it is done:
The dissociation constant (Kd) was determined as described by Jellinek et al. (Jellinek et al., Proc. Natl. Acad. Sci. USA 90 (1993), 11227-11231). […] Of the analysed sequences the clone M69 bound cytohesin-1-His6 with a dissociation constant of 16 nM (see Table 2). As controls the same binding experiments were carried out with E. coli lysates which were treated similarly to the cytohesin-1 expressed in E. coli.
as §2, with “The aptamer M56 however binds best to the full-length protein cytohesin-1 and barely to the Sec7 domain of Gea2. Since both the Sec7 domain and also the PH domain of cytohesin-1 are bound with somewhat reduced affinities compared with the full-length protein, the aptamer appears to recognise a binding site on cytosin-1 which is composed of both domains.” left out

Data set [9] addresses T2, cytohesin-1 (full-length). The experiment in a line: filter; 3 mM MgCl2, PBS-type buffer pH 7.3, 37 C. The note with it: tags: 6xHis (cytohesin-1-His6), E. coli, Ni-NTA; label: 5'-32P. How it is done: Increasing concentrations of cytohesin-1-His6 (0.1 nM to 500 nM) were incubated with the aptamers according to the invention (1.0 nM) radioactively labelled with ³²P at the 5′ end for 1 h at 37° C. in selection buffer. The RNA/cytohesin-1-His6 complexes were then filtered over nitrocellulose acetate mixed membranes (HAWP 0.45 μm, Millipore). The filter was then rinsed with 5 ml of washing buffer (3 mM MgCl₂, 137 mM NaCl, 2.7 mM KCl, 4.3 mM Na₂HPO₄.7H₂O, 1.4 mM KH₂PO₄). Before the experiment the filters were pretreated for 10 minutes with 40 mM 6-aminocaproic acid and 20% ethanol. Radioactive RNA retained on the filters was quantified by analysis using a phosphor imager (Storm 860, Amersham). The dissociation constant (Kd) was determined as described by Jellinek et al. (Jellinek et al., Proc. Natl. Acad. Sci. USA 90 (1993), 11227-11231). […] Of the analysed sequences the clone M69 bound cytohesin-1-His6 with a dissociation constant of 16 nM (see Table 2). As controls the same binding experiments were carried out with E. coli lysates which were treated similarly to the cytohesin-1 expressed in E. coli.

Data set [10] deals with T2, cytohesin-1 (full-length). The data set can be described thus: non-binding negative control. Conditions: tags: 6xHis (cytohesin-1-His6), E. coli, Ni-NTA.
For data set [11], the target named is T4, cytohesin-1 PH domain (C1-PH). The experiment in a line: filter; no measurable interaction. The note with it: tags: 6xHis, E. coli. The procedure:
as §1
as §2, with “The aptamer M56 however binds best to the full-length protein cytohesin-1 and barely to the Sec7 domain of Gea2. Since both the Sec7 domain and also the PH domain of cytohesin-1 are bound with somewhat reduced affinities compared with the full-length protein, the aptamer appears to recognise a binding site on cytosin-1 which is composed of both domains.” left out

The target in data set [12] is T5, Gea2 Sec7 domain (Gea2-Sec7, G2-Sec7). The data set can be described thus: filter; no measurable interaction. The note with it: tags: 6xHis, provided by Cathy Jackson. The procedure: as §1
as §2, with “The aptamer M56 however binds best to the full-length protein cytohesin-1 and barely to the Sec7 domain of Gea2. Since both the Sec7 domain and also the PH domain of cytohesin-1 are bound with somewhat reduced affinities compared with the full-length protein, the aptamer appears to recognise a binding site on cytosin-1 which is composed of both domains.” left out

Where only a bound is given, the exact number is not on record here.

As a reminder, the Kd is a measure of binding affinity in units of concentration.

Chain of chimera ARF-1 protein fused at the carboxy terminus to the constant CH1 and CH2 domains of human IgG immunoglobulin (human) (P84077 whole entry, stated change not applied, the tested form may be a part): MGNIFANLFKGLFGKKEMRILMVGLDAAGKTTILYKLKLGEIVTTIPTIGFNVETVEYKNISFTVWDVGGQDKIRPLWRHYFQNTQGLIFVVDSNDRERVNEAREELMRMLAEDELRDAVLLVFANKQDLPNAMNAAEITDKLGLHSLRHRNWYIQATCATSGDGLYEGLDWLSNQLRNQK

“cytohesin-1 (full-length protein) (from UniProt Q15438 1-398) (enzyme)” showed a binding of [gamma-35S]-GTP to ARF-1 (GDP/GTP exchange assay) in data set [1] of 10 fold.
In the case of “CUAUAGGGAGAGACAAGCUUGGGUCNNNNNNNNNNNNNNNNNNNNNNNNNNNNNNNNNNNNNNNNAGAAGAGAAAGAGAAGUUAAUUAAGGAUCCUCAG [non-selected N40 RNA library]”, the dissociation constant (Kd) in [2] is > 4000 nM.

B1: M5 (ssRNA)
RNA: GGGAGAGACAAGCUUGGGUCGGGUUCGCUAAGUUGGUCUACCCCUCUCGAAUAUCCGUUAAGAAGAGAAAGAGAAGUUAAUUAAGGAUCCUCAG
With B1, the Kd came out at 40 nM in data set [3] (label: 5'-32P), 36 nM in data set [4] (label: 5'-32P), 480 nM in data set [5] and 48 nM in [6].

B2: M3 (ssRNA)
RNA: GGGAGAGACAAGCUUGGGUCAGGGAGGGUAGGGAUUUGGUUGUCCCAUGUUCGCAGCCGUAGAAGAGAAAGAGAAGUUAAUUAAGGAUCCUCAG
As to B2, the binding result in data set [7] was “binds”.

B3: M41 (ssRNA)
RNA: GGGAGAGACAAGCUUGGGUCGUCAUCCGUGUUUUGUCAUGUUUUGAUGGGGUUUGGGGUGUGAUAAGAGAAAGAGAAGUUAAUUAAGGAUCCUCAG
Consider B3, for which, in data set [7], the binding result is listed as “binds”.

B4: M56 (ssRNA)
RNA: GGGAGAGACAAGCUUGGGUCUGUUGUUGGACCAGUGUUAUUUUACGCGAUUGUGCGGUUGUGAAGAGAAAGAGAAGUUAAUUAAGGAUCCUCAG
Turning to B4, the Kd in data set [8] is > 1000 nM; in data set [9] it was 5 nM; in data set [4] (label: 5'-32P), 280 nM; in [5], 150 nM.

B5: ML1 (ssRNA)
RNA: GGGAGAGACAAGCUUGGGUCGUGUCUGUGUAGAGGACAGGGCGAGAGUCUGAUUGUCUGCAGAAGAGAAAGAGAAGUUAAUUAAGGAUCCUCAG
As to B5, the binding result in data set [10] was “no binding”.

B6: M69 (ssRNA)
RNA: GGGAGAGACAAGCUUGGGUCUAUUAUGCCUUUAGCUAGCGCAUUCUGUGGGGUGGGUGGAAGAAGAGAAAGAGAAGUUAAUUAAGGAUCCUCAG
For B6, the Kd in data set [3] and in data set [4] was 16 nM in each case. Further, the binding result in [11] and in data set [12] was “no binding” each time.
